B1: peptide FIFEQVQNV (SEQ ID NO: 71) (peptide)
peptide: FIFEQVQNV
B2: peptide AAAPGEALHTA (SEQ ID NO: 9) (peptide)
peptide: AAAPGEALHTA
B3: peptide ALYSKGILL (SEQ ID NO: 95) (peptide)
peptide: ALYSKGILL
B4: peptide SLDLHVPSL (SEQ ID NO: 75) (peptide)
peptide: SLDLHVPSL
B5: peptide TLIQFTVKL (SEQ ID NO: 104) (peptide)
peptide: TLIQFTVKL
B6: peptide QMLEAIKALEV (SEQ ID NO: 99) (peptide)
peptide: QMLEAIKALEV
B7: peptide TLVDNISTMAL (SEQ ID NO: 90) (peptide)
peptide: TLVDNISTMAL
B8: peptide KLFDRSVDL (SEQ ID NO: 69) (peptide)
peptide: KLFDRSVDL
B9: peptide YLQDYTDRV (SEQ ID NO: 92) (peptide)
peptide: YLQDYTDRV
B10: peptide VLFHQLQEI (SEQ ID NO: 64) (peptide)
peptide: VLFHQLQEI
B11: peptide ALSSVIKEL (SEQ ID NO: 82) (peptide)
peptide: ALSSVIKEL
B12: peptide AIIDGKIFCV (SEQ ID NO: 77) (peptide)
peptide: AIIDGKIFCV
B13: peptide NLLKLIAEV (SEQ ID NO: 96) (peptide)
peptide: NLLKLIAEV
B14: peptide AMNSQILEV (SEQ ID NO: 101) (peptide)
peptide: AMNSQILEV
B15: peptide FLDSLSPSV (SEQ ID NO: 74) (peptide)
peptide: FLDSLSPSV
B16: peptide VADPETRTV (SEQ ID NO: 100) (peptide)
peptide: VADPETRTV
B17: peptide TLLWKLVEV (SEQ ID NO: 70) (peptide)
peptide: TLLWKLVEV
B18: peptide FAYDGKDYLTL (SEQ ID NO: 85) (peptide)
peptide: FAYDGKDYLTL
B19: peptide LLMSTENEL (SEQ ID NO: 63) (peptide)
peptide: LLMSTENEL
B20: peptide FLFPVYPLI (SEQ ID NO: 68) (peptide)
peptide: FLFPVYPLI
B21: peptide YLNLISTSV (SEQ ID NO: 66) (peptide)
peptide: YLNLISTSV
B22: peptide RLLEPAQVQQL (SEQ ID NO: 79) (peptide)
peptide: RLLEPAQVQQL
B23: peptide SLSSYTPDV (SEQ ID NO: 73) (peptide)
peptide: SLSSYTPDV
B24: peptide ALFARPDLLLL (SEQ ID NO: 102) (peptide)
peptide: ALFARPDLLLL
B25: peptide VLLSGLTEV (SEQ ID NO: 59) (peptide)
peptide: VLLSGLTEV
B26: peptide TLHRETFYL (SEQ ID NO: 88) (peptide)
peptide: TLHRETFYL
B27: peptide KLFAIPILL (SEQ ID NO: 11) (peptide)
peptide: KLFAIPILL
B28: peptide ALVDHLNVGV (SEQ ID NO: 98) (peptide)
peptide: ALVDHLNVGV
B29: peptide KMFENEFLL (SEQ ID NO: 84) (peptide)
peptide: KMFENEFLL
B30: peptide MLYDIVPVV (SEQ ID NO: 67) (peptide)
peptide: MLYDIVPVV
B31: peptide VMLPIGAVVMV (SEQ ID NO: 62) (peptide)
peptide: VMLPIGAVVMV
B32: peptide ALFPVAEDISL (SEQ ID NO: 94) (peptide)
peptide: ALFPVAEDISL
B33: peptide SLFSQMGSQYEL (SEQ ID NO: 56) (peptide)
peptide: SLFSQMGSQYEL
B34: peptide VMYDLITEL (SEQ ID NO: 65) (peptide)
peptide: VMYDLITEL
B35: peptide SLLEYQMLV (SEQ ID NO: 103) (peptide)
peptide: SLLEYQMLV
B36: peptide SIMDYVVFV (SEQ ID NO: 6) (peptide)
peptide: SIMDYVVFV
B37: peptide KLLEIDIDGV (SEQ ID NO: 83) (peptide)
peptide: KLLEIDIDGV
B38: peptide ILMDPSPEYA (SEQ ID NO: 80) (peptide)
peptide: ILMDPSPEYA
B39: peptide VLIGDVLVAV (SEQ ID NO: 57) (peptide)
peptide: VLIGDVLVAV
B40: peptide KLQDGVHII (SEQ ID NO: 91) (peptide)
peptide: KLQDGVHII
B41: peptide KVIDYVPGI (SEQ ID NO: 86) (peptide)
peptide: KVIDYVPGI
B42: peptide LLIADNPQL (SEQ ID NO: 55) (peptide)
peptide: LLIADNPQL
B43: peptide GLLGDIAIHL (SEQ ID NO: 7) (peptide)
peptide: GLLGDIAIHL
B44: peptide LLAEIGAVTLV (SEQ ID NO: 81) (peptide)
peptide: LLAEIGAVTLV
B45: peptide VVSGATETL (SEQ ID NO: 60) (peptide)
peptide: VVSGATETL
B46: peptide IQHDLIFSL (SEQ ID NO: 89) (peptide)
peptide: IQHDLIFSL
B47: peptide LLQNNLPAV (SEQ ID NO: 87) (peptide)
peptide: LLQNNLPAV
B48: peptide KAIGSLKEV (SEQ ID NO: 72) (peptide)
peptide: KAIGSLKEV
B49: peptide VLLNINGIDL (SEQ ID NO: 58) (peptide)
peptide: VLLNINGIDL
B50: peptide RIIDPEDLKALL (SEQ ID NO: 78) (peptide)
peptide: RIIDPEDLKALL
B51: peptide ALLDGTVFEI (SEQ ID NO: 97) (peptide)
peptide: ALLDGTVFEI
B52: peptide ALRETVVEV (SEQ ID NO: 93) (peptide)
peptide: ALRETVVEV
B53: peptide YQAPYFLTV (SEQ ID NO: 61) (peptide)
peptide: YQAPYFLTV

Target: T1, HLA-A*02:01 (peptide-receptive MHC class I monomer after UV-ligand exchange) (human)
T1 construct: Monomers made with a UV-sensitive peptide that is cleaved by UV and exchanged for the test peptide; captured on streptavidin plates; also called MHC molecules
Test: UV-ligand exchange + anti-b2m ELISA; exchange yield grade: + >=10%, ++ >=20%, +++ >=50, ++++ >=75%
From the text: Candidate peptides for T cell based therapies according to the present invention were further tested for their MHC binding capacity (affinity). The individual peptide-MHC complexes were produced by UV-ligand exchange, where a UV-sensitive peptide is cleaved upon UV-irradiation, and exchanged with the peptide of interest as analyzed. Only peptide candidates that can effectively bind and stabilize the peptide-receptive MHC molecules prevent dissociation of the MHC complexes. To determine the yield of the exchange reaction, an ELISA was performed based on the detection of the light chain (β2m) of stabilized MHC complexes. The assay was performed as generally described in Rodenko et al. (Rodenko et al., 2006).
96 well MAXISorp plates (NUNC) were coated over night with 2 ug/ml streptavidin in PBS at room temperature, washed 4× and blocked for 1 h at 37° C. in 2% BSA containing blocking buffer. Refolded HLA-A*02:01/MLA-001 monomers served as standards, covering the range of 15-500 ng/ml. Peptide-MHC monomers of the UV-exchange reaction were diluted 100 fold in blocking buffer. Samples were incubated for 1 h at 37° C., washed four times, incubated with 2 ug/ml HRP conjugated anti-β2m for 1 h at 37° C., washed again and detected with TMB solution that is stopped with […]. Absorption was measured at 450 nm. Candidate peptides that show a high exchange yield (preferably higher than 50%, most preferred higher than 75%) are generally preferred for a generation and production of antibodies or fragments thereof, and/or T cell receptors or fragments thereof, as they show sufficient avidity to the MHC molecules and prevent dissociation of the MHC complexes.

Row | Binder | peptide exchange yield [%]
1 | B1 | 50 to 75
2 | B2 | 20 to 50
3 | B3 | ≥ 75
4 | B4 | 50 to 75
5 | B5 | 50 to 75
6 | B6 | ≥ 75
7 | B7 | 50 to 75
8 | B8 | 20 to 50
9 | B9 | 50 to 75
10 | B10 | 50 to 75
11 | B11 | 50 to 75
12 | B12 | 50 to 75
13 | B13 | ≥ 75
14 | B14 | 50 to 75
15 | B15 | 50 to 75
16 | B16 | 10 to 20
17 | B17 | 20 to 50
18 | B18 | 50 to 75
19 | B19 | 50 to 75
20 | B20 | 50 to 75
21 | B21 | 50 to 75
22 | B22 | 50 to 75
23 | B23 | 50 to 75
24 | B24 | ≥ 75
25 | B25 | ≥ 75
26 | B26 | ≥ 75
27 | B27 | 50 to 75

Row | Binder | peptide exchange yield [%]
28 | B28 | 50 to 75
29 | B29 | 50 to 75
30 | B30 | 50 to 75
31 | B31 | 50 to 75
32 | B32 | 50 to 75
33 | B33 | 50 to 75
34 | B34 | 50 to 75
35 | B35 | ≥ 75
36 | B36 | ≥ 75
37 | B37 | 50 to 75
38 | B38 | 50 to 75
39 | B39 | ≥ 75
40 | B40 | 50 to 75
41 | B41 | 50 to 75
42 | B42 | ≥ 75
43 | B43 | 50 to 75
44 | B44 | 50 to 75
45 | B45 | ≥ 75
46 | B46 | 50 to 75
47 | B47 | ≥ 75
48 | B48 | 50 to 75
49 | B49 | ≥ 75
50 | B50 | ≥ 75
51 | B51 | 50 to 75
52 | B52 | 50 to 75
53 | B53 | 50 to 75
